Results published in patent US5786328A, “Use of kunitz type plasma kallikrein inhibitors” (Genentech, Inc., priority 1995, dated 1998).

What was measured:
Test in all cases: Specificity assay, fraction of remaining proteolytic activity
Format in all cases: biochemical
plasma kallikrein = target: T1, plasma kallikrein (Homo sapiens, UniProt P03952); settings: 100 nM inhibitor; 3.5 nM enzyme
T1 construct: Human plasma kallikrein and Factor XIIa were purchased; purchased Enzyme Research Laboratories, Inc. (South Bend, Ind)
Description: (§1) Aliquots (30 μL) of various inhibitors diluted to 500 nM were incubated with each protease (100 μL) in the appropriate buffer. After incubation of the substrate/inhibitor mixes at room temperature for 2 h, the appropriate substrate (20 μL) was added, and the absorbance at 405 nm was monitored. Controls lacking inhibitor and enzyme were assayed to measure the uninhibited and substrate hydrolysis rates, respectively. […] The FXIa assay also contained 1 mg/mL BSA. The concentration of FXIa throughout refers to the concentration of active sites. For this experiment, the concentrations of thrombin, TF-FVIIa, FXa, FXIa, FXIIa, and plasmin are 25 approximate and are determined based upon the manufacturers, specifications.
(§2) Serine proteases (1 to 20 nM) were assayed in the presence of 100 nM inhibitor.

Factor XIa = target: T2, Factor XIa (Homo sapiens, UniProt P03951); settings: 100 nM inhibitor; […] enzyme
T2 construct: purchased Haematologic Technologies Inc. (Essex Jct., VT)
Description: as §1, §2

Factor XIIa = target: T3, Factor XIIa (Homo sapiens, UniProt P00748); settings: 100 nM inhibitor; 14 nM enzyme
T3 construct: purchased Enzyme Research Laboratories, Inc. (South Bend, Ind)
T3 sequence (P00748 20-372 limits assumed): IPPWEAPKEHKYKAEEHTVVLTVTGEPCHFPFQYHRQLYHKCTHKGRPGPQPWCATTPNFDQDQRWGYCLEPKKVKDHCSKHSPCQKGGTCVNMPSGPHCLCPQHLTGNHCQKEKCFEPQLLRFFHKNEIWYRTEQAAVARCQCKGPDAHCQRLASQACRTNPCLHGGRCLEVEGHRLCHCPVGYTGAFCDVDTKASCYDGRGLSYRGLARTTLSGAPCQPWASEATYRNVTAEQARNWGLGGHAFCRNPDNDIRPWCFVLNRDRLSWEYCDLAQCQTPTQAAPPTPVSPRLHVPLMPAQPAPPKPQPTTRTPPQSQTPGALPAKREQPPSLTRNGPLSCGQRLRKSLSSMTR
T3 sequence (P00748 373-615 limits assumed): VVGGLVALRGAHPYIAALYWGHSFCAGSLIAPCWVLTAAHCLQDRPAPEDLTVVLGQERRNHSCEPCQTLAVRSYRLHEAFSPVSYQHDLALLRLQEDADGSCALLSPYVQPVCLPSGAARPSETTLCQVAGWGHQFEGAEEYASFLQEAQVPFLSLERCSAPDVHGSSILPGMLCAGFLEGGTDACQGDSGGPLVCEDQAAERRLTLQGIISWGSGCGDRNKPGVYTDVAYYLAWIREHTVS
Description: as §1, §2

Factor Xa = target: T4, Factor Xa (Homo sapiens, UniProt P00742); settings: 100 nM inhibitor; 2.5 nM enzyme
T4 construct: purchased Haematologic Technologies Inc. (Essex Jct., VT)
Description: as §1, §2

thrombin = target: T5, thrombin (Homo sapiens, UniProt P00734); settings: 100 nM inhibitor; 6.2 nM enzyme
T5 construct: purchased Haematologic Technologies Inc. (Essex Jct., VT)
Description: as §1, §2

TF-FVIIa = target: T6, TF-FVIIa (Homo sapiens, UniProt P08709); settings: 100 nM inhibitor; TF 77 nM, FVIIa 14 nM
T6 construct: purchased Haematologic Technologies Inc. (Essex Jct., VT) for FVIIa; TF made in house; host or cells: TF1-243: E. coli
Description: as §1, §2

plasmin = target: T7, plasmin (Homo sapiens, UniProt P00747); settings: 100 nM inhibitor; 32 nM enzyme
T7 construct: Human plasmin, S-2302, S-2251, and S-2366 were purchased from Kabi Vitrum (Sweden); purchased Kabi Vitrum (Sweden)
Description: as §1, §2

activated protein C = target: T8, activated protein C (Homo sapiens, UniProt P04070); settings: 100 nM inhibitor; 7.6 nM enzyme
T8 construct: purchased Haematologic Technologies Inc. (Essex Jct., VT)
T8 sequence (P04070 43-197 limits assumed): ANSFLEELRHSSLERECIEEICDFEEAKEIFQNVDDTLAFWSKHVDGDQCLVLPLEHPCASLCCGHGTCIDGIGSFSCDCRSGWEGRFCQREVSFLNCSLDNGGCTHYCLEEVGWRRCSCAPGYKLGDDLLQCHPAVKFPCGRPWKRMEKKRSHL
T8 sequence (P04070 212-461 limits assumed): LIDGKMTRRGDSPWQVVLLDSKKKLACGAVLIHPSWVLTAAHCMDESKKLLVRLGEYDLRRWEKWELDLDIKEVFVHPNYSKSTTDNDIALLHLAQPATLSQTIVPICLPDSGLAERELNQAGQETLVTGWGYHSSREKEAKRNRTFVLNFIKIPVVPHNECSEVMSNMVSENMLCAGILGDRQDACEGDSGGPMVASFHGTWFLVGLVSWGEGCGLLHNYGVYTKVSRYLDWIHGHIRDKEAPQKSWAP
Description: as §1, §2

T2 sequence (P03951 19-387 limits assumed): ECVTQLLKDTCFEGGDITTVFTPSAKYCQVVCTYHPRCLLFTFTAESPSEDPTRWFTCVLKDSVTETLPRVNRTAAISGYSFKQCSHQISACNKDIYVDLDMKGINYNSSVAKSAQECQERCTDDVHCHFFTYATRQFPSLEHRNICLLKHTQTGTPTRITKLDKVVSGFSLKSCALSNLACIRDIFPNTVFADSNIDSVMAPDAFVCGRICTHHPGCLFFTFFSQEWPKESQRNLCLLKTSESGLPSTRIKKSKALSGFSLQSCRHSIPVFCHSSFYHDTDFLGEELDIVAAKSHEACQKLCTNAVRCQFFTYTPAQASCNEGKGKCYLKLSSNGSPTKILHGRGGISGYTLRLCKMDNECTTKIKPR
T2 sequence (P03951 388-625 limits assumed): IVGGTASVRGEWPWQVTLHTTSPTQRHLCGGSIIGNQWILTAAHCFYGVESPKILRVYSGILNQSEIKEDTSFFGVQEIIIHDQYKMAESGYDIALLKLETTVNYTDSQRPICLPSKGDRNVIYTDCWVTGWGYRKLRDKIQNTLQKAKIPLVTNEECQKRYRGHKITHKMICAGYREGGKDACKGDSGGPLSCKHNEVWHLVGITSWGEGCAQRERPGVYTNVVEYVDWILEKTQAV
T4 sequence (P00742 41-179 limits assumed): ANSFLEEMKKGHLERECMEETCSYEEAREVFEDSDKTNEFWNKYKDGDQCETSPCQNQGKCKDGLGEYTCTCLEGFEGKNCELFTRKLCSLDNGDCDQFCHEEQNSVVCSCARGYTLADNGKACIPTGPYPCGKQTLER
T4 sequence (P00742 235-488 limits assumed): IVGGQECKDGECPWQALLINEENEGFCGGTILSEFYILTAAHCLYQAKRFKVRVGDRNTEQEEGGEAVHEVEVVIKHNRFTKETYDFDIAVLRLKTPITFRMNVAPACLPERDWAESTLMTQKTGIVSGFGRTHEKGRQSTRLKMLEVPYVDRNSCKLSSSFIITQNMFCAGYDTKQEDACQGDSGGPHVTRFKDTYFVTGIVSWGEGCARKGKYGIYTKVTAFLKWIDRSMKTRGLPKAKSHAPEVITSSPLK
T6 sequence (P08709 61-212 limits assumed): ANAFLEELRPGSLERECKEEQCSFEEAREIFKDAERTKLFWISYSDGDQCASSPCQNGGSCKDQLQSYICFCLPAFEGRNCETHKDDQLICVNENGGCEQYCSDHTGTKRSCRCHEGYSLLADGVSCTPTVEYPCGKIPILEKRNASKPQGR
T6 sequence (P08709 213-466 limits assumed): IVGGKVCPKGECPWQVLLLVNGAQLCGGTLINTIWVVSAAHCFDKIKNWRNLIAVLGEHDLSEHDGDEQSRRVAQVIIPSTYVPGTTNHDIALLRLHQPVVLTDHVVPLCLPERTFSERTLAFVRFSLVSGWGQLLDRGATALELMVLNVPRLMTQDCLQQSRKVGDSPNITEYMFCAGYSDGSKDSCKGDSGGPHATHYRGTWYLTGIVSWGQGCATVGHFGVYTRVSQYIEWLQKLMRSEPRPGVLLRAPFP
T6 sequence (P13726 33-275 partner limits assumed): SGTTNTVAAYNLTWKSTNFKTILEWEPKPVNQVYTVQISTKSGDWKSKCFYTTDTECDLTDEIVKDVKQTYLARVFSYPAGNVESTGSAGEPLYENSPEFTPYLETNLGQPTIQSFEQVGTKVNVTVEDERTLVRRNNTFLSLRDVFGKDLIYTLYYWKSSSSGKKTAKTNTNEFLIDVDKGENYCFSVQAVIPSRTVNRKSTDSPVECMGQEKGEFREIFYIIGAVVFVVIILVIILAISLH
T7 sequence (P00747 97-580 limits assumed): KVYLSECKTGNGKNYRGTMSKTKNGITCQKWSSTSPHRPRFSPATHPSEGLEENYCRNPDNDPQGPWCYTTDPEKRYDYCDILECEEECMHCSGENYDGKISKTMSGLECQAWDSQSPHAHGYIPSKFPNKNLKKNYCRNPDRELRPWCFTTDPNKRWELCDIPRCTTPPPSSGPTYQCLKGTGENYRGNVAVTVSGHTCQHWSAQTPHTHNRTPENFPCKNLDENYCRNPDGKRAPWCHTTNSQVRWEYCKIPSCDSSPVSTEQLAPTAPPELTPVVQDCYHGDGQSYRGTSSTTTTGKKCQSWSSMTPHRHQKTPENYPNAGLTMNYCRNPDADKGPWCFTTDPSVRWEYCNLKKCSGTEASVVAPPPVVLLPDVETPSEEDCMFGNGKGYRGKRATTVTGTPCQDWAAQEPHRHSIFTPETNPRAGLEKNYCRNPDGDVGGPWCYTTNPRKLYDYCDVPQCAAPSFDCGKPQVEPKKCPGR
T7 sequence (P00747 581-810 limits assumed): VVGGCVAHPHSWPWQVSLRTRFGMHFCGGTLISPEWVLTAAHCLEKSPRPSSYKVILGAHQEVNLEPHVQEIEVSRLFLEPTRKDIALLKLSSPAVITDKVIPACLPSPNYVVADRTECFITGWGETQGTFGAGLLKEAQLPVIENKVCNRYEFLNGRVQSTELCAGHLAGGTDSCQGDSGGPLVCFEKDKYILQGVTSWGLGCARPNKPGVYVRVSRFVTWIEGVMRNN
T1 sequence (P03952 20-390 limits assumed): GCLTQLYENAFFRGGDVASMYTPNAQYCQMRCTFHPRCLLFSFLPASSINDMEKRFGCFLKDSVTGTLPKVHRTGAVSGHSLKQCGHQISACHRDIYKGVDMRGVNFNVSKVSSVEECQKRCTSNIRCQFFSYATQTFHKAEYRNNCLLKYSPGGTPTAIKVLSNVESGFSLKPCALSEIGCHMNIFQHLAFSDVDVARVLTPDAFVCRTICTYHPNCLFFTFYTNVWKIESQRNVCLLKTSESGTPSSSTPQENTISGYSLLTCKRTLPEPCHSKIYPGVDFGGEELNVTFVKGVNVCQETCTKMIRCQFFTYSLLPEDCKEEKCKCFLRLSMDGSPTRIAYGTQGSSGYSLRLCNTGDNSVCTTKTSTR
T1 sequence (P03952 391-638 limits assumed): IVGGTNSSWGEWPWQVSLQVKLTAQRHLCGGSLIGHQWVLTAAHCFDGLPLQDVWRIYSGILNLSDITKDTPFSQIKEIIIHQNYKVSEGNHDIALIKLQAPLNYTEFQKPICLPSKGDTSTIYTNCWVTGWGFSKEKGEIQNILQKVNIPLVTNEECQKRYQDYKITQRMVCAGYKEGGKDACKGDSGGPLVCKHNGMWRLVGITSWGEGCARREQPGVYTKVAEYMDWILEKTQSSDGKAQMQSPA

Row | Substance | fraction of remaining proteolytic activity, plasma kallikrein (plasma kallikrein) | fraction of remaining proteolytic activity, Factor XIa (Factor XIa) | fraction of remaining proteolytic activity, Factor XIIa (Factor XIIa) | fraction of remaining proteolytic activity, Factor Xa (Factor Xa) | fraction of remaining proteolytic activity, thrombin (thrombin) | fraction of remaining proteolytic activity, TF·Factor VIIa (TF-FVIIa) | fraction of remaining proteolytic activity, plasmin (plasmin) | fraction of remaining proteolytic activity, activated protein C (activated protein C)
1 | KALI-13: APPI Kunitz domain mutant, R1 SGHCRAAIPR2 FR3 (SEQ ID NO: 1) (VREVCSEQAESGHCRAAIPRWYFDVTEGKCAPFFYGGCGGNRNNFDTEEYCAAVCGSA) | 0.00 | 0.01 | 1.00 | 0.97 | 0.96 | 0.96 | 0.65 | 0.90
2 | KALI-30: APPI Kunitz domain mutant, R1 EGHCRAAILR2 FR3 (SEQ ID NO: 5) (VREVCSEQAEEGHCRAAILRWYFDVTEGKCAPFFYGGCGGNRNNFDTEEYCAAVCGSA) | 0.00 | 0.00 | 0.92 | 0.68 | 1.00 |  | 0.53 | 0.81
3 | KALI-48: APPI Kunitz domain mutant, R1 TGHCRAAIPR2 FR3 (SEQ ID NO: 2) (VREVCSEQAETGHCRAAIPRWYFDVTEGKCAPFFYGGCGGNRNNFDTEEYCAAVCGSA) | 0.00 | 0.01 | 0.99 | 0.55 | 0.99 | 0.95 | 0.23 | 0.92
4 | KALI-46: APPI Kunitz domain mutant, R1 EGRCRASILR2 FR3 (SEQ ID NO: 33) (VREVCSEQAEEGRCRASILRWYFDVTEGKCAPFFYGGCGGNRNNFDTEEYCAAVCGSA) | 0.00 | 0.00 | 0.97 |  | 0.99 | 0.86 | 0.64 | 0.83
5 | KALI-8: APPI Kunitz domain mutant, R1 LGHCRAAIPR2 FR3 (SEQ ID NO: 3) (VREVCSEQAELGHCRAAIPRWYFDVTEGKCAPFFYGGCGGNRNNFDTEEYCAAVCGSA) | 0.00 | 0.00 | 1.00 |  | 0.99 | 0.94 | 0.83 | 0.89
